In publication PMC4899871 (2016):

B1: GST-HA-ATG16L1-320–607 (recombinant WD40 domain fused to GST and the HA tag) [human] / TMEM59 263–281 peptide, wild type (19-amino acid peptide that includes the ATG16L1-binding motif) [modified: Immobilised through the N-terminus by a … (parent complex)
chain 1: AHDGEVNAVQFSPGSRLLATGGMDRRVKLWEVFGEKCEFKGSLSGSNAGITSIEFDSAGSYLLAASNDFASRIWTVDDYRLRHTLTGHSGKVLSAKFLLDNARIVSGSHDRTLKLWDLRSKVCIKTVFAGSSCNDIVCTEQCVMSGHFDKKIRFWDIRSESIVREMELLGKITALDLNPERTELLSCSRDDLLKVIDLRTNAIKQTFSAPGFKCGSDWTRVVFSPDGSYVAAGSAEGSLYIWSVLTGKVEKVLSKQHSSSINAVAWSPSGSHVVSVDKGCKAVLWAQY
chain 2: TAVEQYVPSEKLSIYGDLE
B2: GST-HA-ATG16L1-231–607 T300, purified from human cells [human] / TMEM59 263–281 peptide, wild type (19-amino acid peptide that includes the ATG16L1-binding motif) [modified: Immobilised through the N-terminus by a long spacer (Tds). Some … (parent complex)
chain 1: PLPVEQDDDIEVIVDETSDHTEETSPVRAISRAATKRLSQPAGGLLDSITNIFGRRSVSSFPVPQDNVDTHPGSGKEVRVPATALCVFDAHDGEVNAVQFSPGSRLLATGGMDRRVKLWEVFGEKCEFKGSLSGSNAGITSIEFDSAGSYLLAASNDFASRIWTVDDYRLRHTLTGHSGKVLSAKFLLDNARIVSGSHDRTLKLWDLRSKVCIKTVFAGSSCNDIVCTEQCVMSGHFDKKIRFWDIRSESIVREMELLGKITALDLNPERTELLSCSRDDLLKVIDLRTNAIKQTFSAPGFKCGSDWTRVVFSPDGSYVAAGSAEGSLYIWSVLTGKVEKVLSKQHSSSINAVAWSPSGSHVVSVDKGCKAVLWAQY
chain 2: TAVEQYVPSEKLSIYGDLE

Variants of: B1
Experiment: peptide microarray; probe expressed in bacteria; mean ± s.d., n=9 replicas; parent: 100; read off a plot

Variant	percent of parent
chain 2 Y6A, chain 2 E10A, chain 2 Y15A, chain 2 L18A	~2.5 % of WT peptide (OD635, normalized values)

Variants of: B2
Experiment: peptide microarray; probe purified from human cells; mean ± s.d., n=9 replicas; parent: 100; read off a plot

Variant	percent of parent
chain 2 L18A	~19 % of WT peptide (OD635, normalized values)
chain 2 E10A	~130 % of WT peptide (OD635, normalized values)
chain 2 V7A	~140 % of WT peptide (OD635, normalized values)
chain 2 Y6A, chain 2 E10A, chain 2 Y15A, chain 2 L18A	~3 % of WT peptide (OD635, normalized values)
chain 2 Y15A	~10 % of WT peptide (OD635, normalized values)
chain 2 K11A	~96 % of WT peptide (OD635, normalized values)
chain 2 G16A	~160 % of WT peptide (OD635, normalized values)
chain 2 Y6A	~45 % of WT peptide (OD635, normalized values)

Variants of: B2
Experiment: peptide microarray; probes purified from human cells; mean ± s.d., n=54; values normalised to the A300 ligand (= 100); parent: 160; read off a plot

Variant	response
chain 1 T70A	~100 OD635, normalized values (% of the A300 ligand signal)

Variants of: B2
Experiment: peptide microarray; probe purified from human cells; mean ± s.d., n=9 replicas; parent: 9.3e+03; read off a plot

Variant	response
chain 2 Y6A, chain 2 E10A, chain 2 Y15A, chain 2 L18A	~400 a.u. (OD635)
